Experimental data from article PMC4107794 (The Journal of Cell Biology, 2014).

Key:
FLAG-Rad18 = FLAG-Rad18 (UniProt Q9NS91 1-495); assay: pull-down
GST-Rad18 = GST-Rad18 (UniProt Q9NS91 1-495); assay: pull-down
Sequence of GST-Rad18 (Q9NS91 whole entry): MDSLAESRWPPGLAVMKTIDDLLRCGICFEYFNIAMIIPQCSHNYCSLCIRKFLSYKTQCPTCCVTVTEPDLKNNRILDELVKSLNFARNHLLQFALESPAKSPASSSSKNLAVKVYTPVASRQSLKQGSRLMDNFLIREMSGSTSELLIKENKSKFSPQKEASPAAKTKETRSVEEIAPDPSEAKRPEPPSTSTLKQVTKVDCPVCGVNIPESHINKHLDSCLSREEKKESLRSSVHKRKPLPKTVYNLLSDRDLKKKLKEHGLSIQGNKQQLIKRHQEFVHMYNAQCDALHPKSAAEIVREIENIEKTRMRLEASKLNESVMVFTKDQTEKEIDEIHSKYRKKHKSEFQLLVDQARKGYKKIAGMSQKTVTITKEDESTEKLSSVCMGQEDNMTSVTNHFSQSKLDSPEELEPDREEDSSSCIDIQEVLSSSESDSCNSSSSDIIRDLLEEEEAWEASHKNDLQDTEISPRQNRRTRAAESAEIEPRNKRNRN

Sequence of FLAG-Rad18 (Q9NS91 whole entry): as above

binding result (FLAG-Rad18): binds
binding result (GST-Rad18): binds
B1: FLAG-SHPRH (natural protein)
chain: MSSRRKRAPPVRVDEEKRQQLHWNMHEDRRNEPIIISDDDEQPCPGSDTSSAHYIILSDSLKEEVAHRDKKRCSKVVSFSKPIEKEETVGIFSPLSVKLNIVISPYHFDNSWKAFLGELTLQLLPAQSLIENFSERSITLMSSESSNQFLIYVHSKGEDVEKQKKEPMSICDKGILVESSFSGEMLEDLGWLQKKRRIKLYQKPEGNHIIKVGIYLLEAGLAKLDFLSDANSRMKKFNQLMKKVMEKLHNSIIPDVLEEDEDDPESEPEGQDIDELYHFVKQTHQQETQSIQVDVQHPALIPVLRPYQREAVNWMLQQECFRSSPATESALHFLWREIVTSEGLKLYYNPYTGCIIREYPNSGPQLLGGILADEMGLGKTVEVLALILTHTRQDVKQDALTLPEGKVVNYFIPSHYFGGKLKKTEIQNIEFEPKEKVQCPPTRVMILTAVKEMNGKKGVSILSIYKYVSSIYRYDVQRNRSLLKRMLKCLIFEGLVKQIKGHGFSGTFTLGKNYKEEDICDKTKKQAVGSPRKIQKETRKSGNKDTDSEYLPSDTSDDDDDPYYYYYKSRRNRSKLRKKLVPSTKKGKSQPFINPDSQGHCPATSDSGITDVAMSKSTCISEFNQEHETEDCAESLNHADSDVPPSNTMSPFNTSDYRFECICGELDQIDRKPRVQCLKCHLWQHAKCVNYDEKNLKIKPFYCPHCLVAMEPVSTRATLIISPSSICHQWVDEINRHVRSSSLRVLVYQGVKKDGFLQPHFLAEQDIVIITYDVLRSELNYVDIPHSNSEDGRRLRNQKRYMAIPSPLVAVEWWRICLDEAQMVECPTVKAAEMAQRLSGINRWCISGTPVQRGLEDLFGLVVFLGIEPYCVKHWWVRLLYRPYCKKNPQHLYSFIAKILWRSAKKDVIDQIQIPPQTEEIHWLHFSPVERHFYHRQHEVCCQDVVVKLRKISDWALKLSSLDRRTVTSILYPLLRLRQACCHPQAVRGEFLPLQKSTMTMEELLTSLQKKCGTECEEAHRQLVCALNGLAGIHIIKGEYALAAELYREVLRSSEEHKGKLKTDSLQRLHATHNLMELLIARHPGIPPTLRDGRLEEEAKQLREHYMSKCNTEVAEAQQALYPVQQTIHELQRKIHSNSPWWLNVIHRAIEFTIDEELVQRVRNEITSNYKQQTGKLSMSEKFRDCRGLQFLLTTQMEELNKCQKLVREAVKNLEGPPSRNVIESATVCHLRPARLPLNCCVFCKADELFTEYESKLFSNTVKGQTAIFEEMIEDEEGLVDDRAPTTTRGLWAISETERSMKAILSFAKSHRFDVEFVDEGSTSMDLFEAWKKEYKLLHEYWMALRNRVSAVDELAMATERLRVRDPREPKPNPPVLHIIEPHEVEQNRIKLLNDKAVATSQLQKKLGQLLYLTNLEKSQDKTSGGVNPEPCPICARQLGKQWAVLTCGHCFCNECISIIIEQYSVGSHRSSIKCAICRQTTSHKEISYVFTSEKANQEEDIPVKGSHSTKVEAVVRTLMKIQLRDPGAKALVFSTWQDVLDIISKALTDNNMEFAQISRVKTFQENLSAFKRDPQINILLLPLHTGSNGLTIIEATHVLLVEPILNPAHELQAIGRVHRIGQTKPTIVHRFLIKATIEERMQAMLKTAERSHTNSSAKHSEASVLTVADLADLFTKETEELE
